Eight molecules from patent US20200270588A1, “GLUCOSYL TRANSFERASE POLYPEPTIDES AND METHODS OF USE” (Syngenta Participations AG, priority 2017, published 2020) can be followed below.

The test in a line: UDP luminescence plate assay of E. coli extracts, mutants of SEQ ID No: 1, 2 mM metribuzin. The format is biochemical, Zea mays. The conditions noted are these: for factor of increased signal relative to the bx9 w/t control signal (first parentheses) / ratio of activity with metribuzin relative to activity with DMSO (second parentheses) / RATIO: metribuzin signal to DMSO signal / SIGNAL: metribuzin signal of mutant divided by metribuzin signal of w/t bx9 / luminescence signal with metribuzin / SIGNAL: metribuzin signal of mutant divided by the signal of w/t bx9 / luminescence signal observed with 2 mM metribuzin: 2 mM metribuzin; for luminescence signal with metribuzin: H24A null background 1.00E+05 not subtracted; for SIGNAL: metribuzin signal of mutant divided by the signal of w/t bx9: relative to bx9 w/t; for luminescence signal in the DMSO control: mutants of SEQ ID No: 1, DMSO in place of metribuzin (background UDP-glucose hydrolysis); for luminescence signal observed with 2 mM metribuzin: mutants of SEQ ID No: 1 in E. coli extracts, UDP luminescence. The method, then: Optionally plate assays are stopped with brief heating to 95 C before returning to ice and addition of UDP-Glo detection reagent followed by incubation at lab temperature. […] In addition a UDP standard curve is run alongside each set of plate tests.
Assays were carried out on extracts of E. coli BL21 DE3 expressing the various C-terminally his-tagged library variants of SEQ ID NO:1 at the amino acid positions listed in Table 11 as described in Example 2 except, in this case, with 2 mM metribuzin in place of herbicide V.
Thus the ratio of the metribuzin to DMSO signal as well as the increase in signal relative to the w/t bx9 is used to help distinguish those mutations most likely to offer the highest activity to metribuzin. A follow up assay monitored by, for example, LC MS is one method to distinguish these cases more quantitatively.

B1: M279W, H375Y: mutant combination of bx9 SEQ ID NO:1 (protein)
chain: MASSRTGAGAGGRVVVFPFPFQGHFNPVMRLARALHARGLAITVFHSGALDPADYPADYRFVPVTVEADPKLLASEDIAAIVTTLNASCDAPFRARLSALLAAEGRDSVRCVFTDVSWNAVLTASSDLGVPALGMMTASAASLRDYMAYRTLIDKGYLPVKEERKEDPVPELPPYLVKDLLRVDTSDLEEFAELLARTVTAARRASGLIFNTFPLIETDTLAEIHKALSVPVFAVAPLNKLVPTATASLHGVVQADRGCLQWLDTQQPGSVLYVSFGSWAAMDPHEFVELAWGLADSKRPFVWVVRPNLIRGFESGALPDGVEDEVRGRGIVVAWAPQEEVLAHPAVGGFLTHNGWNSTVEAISEGVPMVCCPRYGDQFGNMRYVCDVWKVGTELVGEQLERGQVKAAIDRLFGTKEGEEIKERMKEFKIAAAKGIGIGVDVDETASPRTDLTDLVDLIKSF
modifications: Zea mays
As for B1, the “factor of increased signal relative to the bx9 w/t control signal (first parentheses)” value came out at 4.0 and the “ratio of activity with metribuzin relative to activity with DMSO (second parentheses)” value is recorded as 5.0.

B2: A334C: bx9 SEQ ID NO:1 mutant (protein)
chain: MASSRTGAGAGGRVVVFPFPFQGHFNPVMRLARALHARGLAITVFHSGALDPADYPADYRFVPVTVEADPKLLASEDIAAIVTTLNASCDAPFRARLSALLAAEGRDSVRCVFTDVSWNAVLTASSDLGVPALGMMTASAASLRDYMAYRTLIDKGYLPVKEERKEDPVPELPPYLVKDLLRVDTSDLEEFAELLARTVTAARRASGLIFNTFPLIETDTLAEIHKALSVPVFAVAPLNKLVPTATASLHGVVQADRGCLQWLDTQQPGSVLYVSFGSMAAMDPHEFVELAWGLADSKRPFVWVVRPNLIRGFESGALPDGVEDEVRGRGIVVCWAPQEEVLAHPAVGGFLTHNGWNSTVEAISEGVPMVCCPRHGDQFGNMRYVCDVWKVGTELVGEQLERGQVKAAIDRLFGTKEGEEIKERMKEFKIAAAKGIGIGVDVDETASPRTDLTDLVDLIKSF
modifications: Zea mays
On to B2, for which the “RATIO: metribuzin signal to DMSO signal” value stood at 0.94, the “SIGNAL: metribuzin signal of mutant divided by metribuzin signal of w/t bx9” value was determined as 1.13 and the “luminescence signal with metribuzin” value came out at 1.39E+05.

B3: A334T: bx9 SEQ ID NO:1 mutant (protein)
chain: MASSRTGAGAGGRVVVFPFPFQGHFNPVMRLARALHARGLAITVFHSGALDPADYPADYRFVPVTVEADPKLLASEDIAAIVTTLNASCDAPFRARLSALLAAEGRDSVRCVFTDVSWNAVLTASSDLGVPALGMMTASAASLRDYMAYRTLIDKGYLPVKEERKEDPVPELPPYLVKDLLRVDTSDLEEFAELLARTVTAARRASGLIFNTFPLIETDTLAEIHKALSVPVFAVAPLNKLVPTATASLHGVVQADRGCLQWLDTQQPGSVLYVSFGSMAAMDPHEFVELAWGLADSKRPFVWVVRPNLIRGFESGALPDGVEDEVRGRGIVVTWAPQEEVLAHPAVGGFLTHNGWNSTVEAISEGVPMVCCPRHGDQFGNMRYVCDVWKVGTELVGEQLERGQVKAAIDRLFGTKEGEEIKERMKEFKIAAAKGIGIGVDVDETASPRTDLTDLVDLIKSF
modifications: Zea mays
Consider B3, for which the “RATIO: metribuzin signal to DMSO signal” value is 0.95, the “SIGNAL: metribuzin signal of mutant divided by metribuzin signal of w/t bx9” value is given as 1.25 and the “luminescence signal with metribuzin” value is on record as 1.54E+05.

B4: M279W: bx9 SEQ ID NO:1 mutant (protein)
chain: MASSRTGAGAGGRVVVFPFPFQGHFNPVMRLARALHARGLAITVFHSGALDPADYPADYRFVPVTVEADPKLLASEDIAAIVTTLNASCDAPFRARLSALLAAEGRDSVRCVFTDVSWNAVLTASSDLGVPALGMMTASAASLRDYMAYRTLIDKGYLPVKEERKEDPVPELPPYLVKDLLRVDTSDLEEFAELLARTVTAARRASGLIFNTFPLIETDTLAEIHKALSVPVFAVAPLNKLVPTATASLHGVVQADRGCLQWLDTQQPGSVLYVSFGSWAAMDPHEFVELAWGLADSKRPFVWVVRPNLIRGFESGALPDGVEDEVRGRGIVVAWAPQEEVLAHPAVGGFLTHNGWNSTVEAISEGVPMVCCPRHGDQFGNMRYVCDVWKVGTELVGEQLERGQVKAAIDRLFGTKEGEEIKERMKEFKIAAAKGIGIGVDVDETASPRTDLTDLVDLIKSF
modifications: Zea mays
Consider B4, for which the “SIGNAL: metribuzin signal of mutant divided by metribuzin signal of w/t bx9” value stood at 1.14, the “luminescence signal with metribuzin” value came to 1.41E+05, the “SIGNAL: metribuzin signal of mutant divided by the signal of w/t bx9” value turned out to be 1.26 and the “luminescence signal in the DMSO control” value stood at 2.09E+05. Besides, the “luminescence signal observed with 2 mM metribuzin” value was determined as 3.51E+05.

B5: M279F, H375F: mutant combination of bx9 SEQ ID NO:1 (protein)
chain: MASSRTGAGAGGRVVVFPFPFQGHFNPVMRLARALHARGLAITVFHSGALDPADYPADYRFVPVTVEADPKLLASEDIAAIVTTLNASCDAPFRARLSALLAAEGRDSVRCVFTDVSWNAVLTASSDLGVPALGMMTASAASLRDYMAYRTLIDKGYLPVKEERKEDPVPELPPYLVKDLLRVDTSDLEEFAELLARTVTAARRASGLIFNTFPLIETDTLAEIHKALSVPVFAVAPLNKLVPTATASLHGVVQADRGCLQWLDTQQPGSVLYVSFGSFAAMDPHEFVELAWGLADSKRPFVWVVRPNLIRGFESGALPDGVEDEVRGRGIVVAWAPQEEVLAHPAVGGFLTHNGWNSTVEAISEGVPMVCCPRFGDQFGNMRYVCDVWKVGTELVGEQLERGQVKAAIDRLFGTKEGEEIKERMKEFKIAAAKGIGIGVDVDETASPRTDLTDLVDLIKSF
modifications: Zea mays
As for B5, the “factor of increased signal relative to the bx9 w/t control signal (first parentheses)” value is recorded as 5.0 and the “ratio of activity with metribuzin relative to activity with DMSO (second parentheses)” value was found to be 4.0.

B6: A334E: bx9 SEQ ID NO:1 mutant (protein)
chain: MASSRTGAGAGGRVVVFPFPFQGHFNPVMRLARALHARGLAITVFHSGALDPADYPADYRFVPVTVEADPKLLASEDIAAIVTTLNASCDAPFRARLSALLAAEGRDSVRCVFTDVSWNAVLTASSDLGVPALGMMTASAASLRDYMAYRTLIDKGYLPVKEERKEDPVPELPPYLVKDLLRVDTSDLEEFAELLARTVTAARRASGLIFNTFPLIETDTLAEIHKALSVPVFAVAPLNKLVPTATASLHGVVQADRGCLQWLDTQQPGSVLYVSFGSMAAMDPHEFVELAWGLADSKRPFVWVVRPNLIRGFESGALPDGVEDEVRGRGIVVEWAPQEEVLAHPAVGGFLTHNGWNSTVEAISEGVPMVCCPRHGDQFGNMRYVCDVWKVGTELVGEQLERGQVKAAIDRLFGTKEGEEIKERMKEFKIAAAKGIGIGVDVDETASPRTDLTDLVDLIKSF
modifications: Zea mays
For B6, the “RATIO: metribuzin signal to DMSO signal” value is listed as 0.96, the “SIGNAL: metribuzin signal of mutant divided by metribuzin signal of w/t bx9” value came out at 1.25 and the “luminescence signal with metribuzin” value was determined as 1.54E+05.

B7: M135V: bx9 SEQ ID NO:1 mutant (protein)
chain: MASSRTGAGAGGRVVVFPFPFQGHFNPVMRLARALHARGLAITVFHSGALDPADYPADYRFVPVTVEADPKLLASEDIAAIVTTLNASCDAPFRARLSALLAAEGRDSVRCVFTDVSWNAVLTASSDLGVPALGVMTASAASLRDYMAYRTLIDKGYLPVKEERKEDPVPELPPYLVKDLLRVDTSDLEEFAELLARTVTAARRASGLIFNTFPLIETDTLAEIHKALSVPVFAVAPLNKLVPTATASLHGVVQADRGCLQWLDTQQPGSVLYVSFGSMAAMDPHEFVELAWGLADSKRPFVWVVRPNLIRGFESGALPDGVEDEVRGRGIVVAWAPQEEVLAHPAVGGFLTHNGWNSTVEAISEGVPMVCCPRHGDQFGNMRYVCDVWKVGTELVGEQLERGQVKAAIDRLFGTKEGEEIKERMKEFKIAAAKGIGIGVDVDETASPRTDLTDLVDLIKSF
modifications: Zea mays
Regarding B7, the “RATIO: metribuzin signal to DMSO signal” value was found to be 0.97, the “SIGNAL: metribuzin signal of mutant divided by metribuzin signal of w/t bx9” value turned out to be 1.18 and the “luminescence signal with metribuzin” value turned out to be 1.46E+05.

B8: S117G: bx9 SEQ ID NO:1 mutant (protein)
chain: MASSRTGAGAGGRVVVFPFPFQGHFNPVMRLARALHARGLAITVFHSGALDPADYPADYRFVPVTVEADPKLLASEDIAAIVTTLNASCDAPFRARLSALLAAEGRDSVRCVFTDVGWNAVLTASSDLGVPALGMMTASAASLRDYMAYRTLIDKGYLPVKEERKEDPVPELPPYLVKDLLRVDTSDLEEFAELLARTVTAARRASGLIFNTFPLIETDTLAEIHKALSVPVFAVAPLNKLVPTATASLHGVVQADRGCLQWLDTQQPGSVLYVSFGSMAAMDPHEFVELAWGLADSKRPFVWVVRPNLIRGFESGALPDGVEDEVRGRGIVVAWAPQEEVLAHPAVGGFLTHNGWNSTVEAISEGVPMVCCPRHGDQFGNMRYVCDVWKVGTELVGEQLERGQVKAAIDRLFGTKEGEEIKERMKEFKIAAAKGIGIGVDVDETASPRTDLTDLVDLIKSF
modifications: Zea mays
Consider B8, for which the “SIGNAL: metribuzin signal of mutant divided by metribuzin signal of w/t bx9” value stood at 1.26, the “luminescence signal with metribuzin” value amounted to 1.56E+05, the “SIGNAL: metribuzin signal of mutant divided by the signal of w/t bx9” value was determined as 1.07 and the “luminescence signal in the DMSO control” value amounted to 2.41E+05. Also, the “luminescence signal observed with 2 mM metribuzin” value is 3.00E+05.
